Source: publication PMC12170172, “Initiation of ERAD by the bifunctional complex of Mnl1/Htm1 mannosidase and protein disulfide isomerase” (Nature Structural & Molecular Biology, 2025)

Biological target: T1, Mnl1–FLAG (S. cerevisiae, UniProt P38888 21-796)
T1 construct: Mnl1 (Htm1), luminal ER mannosidase of S. cerevisiae; MHD amino acids 29–514, loop 515–650, CTD 651–796; called 'Full-length' against Mnl1ΔC; The end of the FLAG tag is stated for the GAL1 plasmid; also called Htm1; FLAG-tagged Mnl1; not shown: FLAG, C-terminal, kept
T1 sequence (looked up): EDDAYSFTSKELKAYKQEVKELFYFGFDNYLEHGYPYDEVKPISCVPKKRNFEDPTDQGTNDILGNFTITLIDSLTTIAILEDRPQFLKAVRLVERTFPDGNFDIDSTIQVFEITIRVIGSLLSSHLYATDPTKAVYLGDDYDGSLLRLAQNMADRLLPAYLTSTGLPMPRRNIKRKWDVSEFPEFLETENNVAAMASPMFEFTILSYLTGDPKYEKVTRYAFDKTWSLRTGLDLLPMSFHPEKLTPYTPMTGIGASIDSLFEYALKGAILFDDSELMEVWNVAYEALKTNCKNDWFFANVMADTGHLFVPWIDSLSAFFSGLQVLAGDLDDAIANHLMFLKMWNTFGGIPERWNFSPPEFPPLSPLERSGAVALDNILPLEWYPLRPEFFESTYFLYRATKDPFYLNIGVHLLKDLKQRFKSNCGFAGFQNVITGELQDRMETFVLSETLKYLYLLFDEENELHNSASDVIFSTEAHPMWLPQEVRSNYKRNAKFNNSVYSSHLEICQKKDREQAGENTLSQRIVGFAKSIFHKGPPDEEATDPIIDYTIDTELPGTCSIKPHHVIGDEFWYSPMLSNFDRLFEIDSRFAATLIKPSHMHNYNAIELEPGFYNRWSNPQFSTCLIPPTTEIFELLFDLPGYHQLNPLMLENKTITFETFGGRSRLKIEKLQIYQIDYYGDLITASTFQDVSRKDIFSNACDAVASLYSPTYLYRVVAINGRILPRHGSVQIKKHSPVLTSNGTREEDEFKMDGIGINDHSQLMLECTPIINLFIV
Test: cryo-EM structure; Mnl1–FLAG–Pdi1 complex at 1 mg/ml, purified from detergent-treated yeast membranes with anti-FLAG beads and by size-exclusion chromatography as a 1:1 complex; 25 mM HEPES pH 7.4, 150 mM NaCl
Settings: both partners purified

B1: Pdi1 (protein disulfide isomerase) (enzyme, S. cerevisiae, UniProt P17967 29-522, looked up)
chain: PEDSAVVKLATDSFNEYIQSHDLVLAEFFAPWCGHCKNMAPEYVKAAETLVEKNITLAQIDCTENQDLCMEHNIPGFPSLKIFKNSDVNNSIDYEGPRTAEAIVQFMIKQSQPAVAVVADLPAYLANETFVTPVIVQSGKIDADFNATFYSMANKHFNDYDFVSAENADDDFKLSIYLPSAMDEPVVYNGKKADIADADVFEKWLQVEALPYFGEIDGSVFAQYVESGLPLGYLFYNDEEELEEYKPLFTELAKKNRGLMNFVSIDARKFGRHAGNLNMKEQFPLFAIHDMTEDLKYGLPQLSEEAFDELSDKIVLESKAIESLVKDFLKGDASPIVKSQEIFENQDSSVFQLVGKNHDEIVNDPKKDVLVLYYAPWCGHCKRLAPTYQELADTYANATSDVLIAKLDHTENDVRGVVIEGYPTIVLYPGGKKSESVVYQGSRSLDSLFDFIKENGHFDVDGKALYEEAQEKAAEEADADAELADEEDAIHDEL
notes: Pdi1, protein disulfide isomerase of S. cerevisiae, untagged; Trx domains a, b, b′ and a′; amino acids 24–500 could be modelled; source: S. cerevisiae, overexpressed together with Mnl1–FLAG (GAL1 promoter), purified as a complex
- stoichiometry N: 1
